Assay results: patent publication US20250346644A1 (LATTICON SUZHOU BIOPHARMACEUTICALS, published 2025)
Like-named read-outs stand apart in the source and are kept apart here.

Key:
[1] = molecular target: T1, high-affinity IL2R expressed on the surface of CTLL-2 cells; experiment: cell-based or functional assay
T1 sequence (P01590 whole entry, species assumed, looked up): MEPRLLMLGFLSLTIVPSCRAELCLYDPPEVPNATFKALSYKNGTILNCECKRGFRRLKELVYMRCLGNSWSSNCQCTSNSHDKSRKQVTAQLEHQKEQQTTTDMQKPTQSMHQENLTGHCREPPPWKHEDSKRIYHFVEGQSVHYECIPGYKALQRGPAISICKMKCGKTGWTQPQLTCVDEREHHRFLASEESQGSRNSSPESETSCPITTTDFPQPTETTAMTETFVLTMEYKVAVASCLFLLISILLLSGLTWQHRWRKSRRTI
T1 sequence (P16297 whole entry, species assumed, looked up): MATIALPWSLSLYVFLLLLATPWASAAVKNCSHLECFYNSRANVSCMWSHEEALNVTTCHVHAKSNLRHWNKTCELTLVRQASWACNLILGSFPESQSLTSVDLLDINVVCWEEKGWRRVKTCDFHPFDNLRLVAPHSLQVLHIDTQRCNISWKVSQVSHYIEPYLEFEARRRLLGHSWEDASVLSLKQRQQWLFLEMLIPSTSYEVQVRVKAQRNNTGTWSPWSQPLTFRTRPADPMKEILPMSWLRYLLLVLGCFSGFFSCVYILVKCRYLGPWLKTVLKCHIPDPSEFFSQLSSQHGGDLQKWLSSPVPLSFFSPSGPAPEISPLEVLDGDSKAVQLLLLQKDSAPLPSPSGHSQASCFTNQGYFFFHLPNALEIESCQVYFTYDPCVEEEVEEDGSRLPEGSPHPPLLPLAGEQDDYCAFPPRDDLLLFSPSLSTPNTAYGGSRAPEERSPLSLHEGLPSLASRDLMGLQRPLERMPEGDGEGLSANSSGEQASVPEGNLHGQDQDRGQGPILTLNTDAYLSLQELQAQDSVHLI
T1 sequence (P34902 whole entry, species assumed, looked up): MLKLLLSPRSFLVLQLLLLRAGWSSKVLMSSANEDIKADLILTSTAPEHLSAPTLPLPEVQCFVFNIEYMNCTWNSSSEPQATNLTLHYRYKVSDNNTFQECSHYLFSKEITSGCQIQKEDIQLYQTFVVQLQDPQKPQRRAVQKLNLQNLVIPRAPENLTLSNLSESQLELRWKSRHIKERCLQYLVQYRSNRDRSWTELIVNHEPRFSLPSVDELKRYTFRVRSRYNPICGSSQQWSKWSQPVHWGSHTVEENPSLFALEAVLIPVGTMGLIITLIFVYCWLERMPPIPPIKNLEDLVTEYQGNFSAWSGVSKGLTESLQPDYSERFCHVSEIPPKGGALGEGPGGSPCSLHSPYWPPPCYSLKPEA

[2] = molecular target: T1, high-affinity IL2R expressed on the …; experiment: cell-based or functional assay; remark: listed apart in the source
[3] = molecular target: T2, hIL2Rβ/γ on CD25-knockout NK-92 cells (human, UniProt P14784 27-551; P31785 23-369); experiment: cell-based or functional assay
T2 sequence (looked up) 1: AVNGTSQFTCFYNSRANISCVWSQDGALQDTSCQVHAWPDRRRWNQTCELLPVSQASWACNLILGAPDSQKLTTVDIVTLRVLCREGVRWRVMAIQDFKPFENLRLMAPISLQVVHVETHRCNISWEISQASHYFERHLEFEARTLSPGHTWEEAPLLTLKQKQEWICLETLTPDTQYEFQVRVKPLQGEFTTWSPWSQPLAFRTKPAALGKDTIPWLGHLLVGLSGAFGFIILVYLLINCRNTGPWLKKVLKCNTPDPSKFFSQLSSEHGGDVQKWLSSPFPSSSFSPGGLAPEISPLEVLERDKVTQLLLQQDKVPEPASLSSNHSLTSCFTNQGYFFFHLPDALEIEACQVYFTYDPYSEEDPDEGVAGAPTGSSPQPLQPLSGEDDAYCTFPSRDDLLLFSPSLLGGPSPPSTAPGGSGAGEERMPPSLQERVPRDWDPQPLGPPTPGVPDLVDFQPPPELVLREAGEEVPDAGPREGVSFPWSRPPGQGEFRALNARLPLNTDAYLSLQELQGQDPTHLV
T2 sequence (looked up) 2: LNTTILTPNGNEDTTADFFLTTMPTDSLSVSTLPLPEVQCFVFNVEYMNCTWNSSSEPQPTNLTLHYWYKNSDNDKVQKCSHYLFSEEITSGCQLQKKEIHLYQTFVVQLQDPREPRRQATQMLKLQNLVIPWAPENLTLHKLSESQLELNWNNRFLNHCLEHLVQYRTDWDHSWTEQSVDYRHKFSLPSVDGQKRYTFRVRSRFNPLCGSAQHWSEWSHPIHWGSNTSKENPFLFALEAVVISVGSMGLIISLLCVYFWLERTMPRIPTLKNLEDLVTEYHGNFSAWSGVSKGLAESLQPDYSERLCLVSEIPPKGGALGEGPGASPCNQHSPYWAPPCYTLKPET

hIL2Rα (hCD25) = molecular target: T3, hIL2Rα (hCD25) (human, UniProt P01589 22-213, limits assumed); experiment: BLI (ForteBio): biotin-CD25 on an SA sensor, buffer step, then sample
T3 construct: bought recombinant protein; also called hCD25 (Acro); biotin-CD25 (Acro)
T3 sequence (looked up): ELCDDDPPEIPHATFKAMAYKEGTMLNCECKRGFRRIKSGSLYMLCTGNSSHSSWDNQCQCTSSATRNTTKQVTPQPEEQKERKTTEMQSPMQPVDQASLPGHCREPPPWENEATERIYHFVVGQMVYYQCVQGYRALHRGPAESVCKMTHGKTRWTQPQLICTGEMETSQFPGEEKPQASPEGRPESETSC

hIL2Rα/β complex = molecular target: T4, hIL2Rα/β complex (human, UniProt P01589 22-213; P14784 27-239); experiment: BLI (ForteBio): biotin-CD25 on an SA sensor, CD122 step, then sample together with CD122
T4 construct: assembled in the BLI assay from bought subunits; also called hIL2Rα/O complex
T4 sequence (looked up) 1: T3 sequence (looked up)
T4 sequence (looked up) 2: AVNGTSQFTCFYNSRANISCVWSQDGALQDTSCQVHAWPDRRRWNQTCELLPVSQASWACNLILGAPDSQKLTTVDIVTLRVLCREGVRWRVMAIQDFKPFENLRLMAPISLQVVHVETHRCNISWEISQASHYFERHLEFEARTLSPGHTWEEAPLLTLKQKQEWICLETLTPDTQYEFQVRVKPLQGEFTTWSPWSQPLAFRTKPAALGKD

hIL2Rα/β/γ complex = molecular target: T5, hIL2Rα/β/γ complex (human, UniProt P01589 22-213; P14784 27-239; P31785 23-254); experiment: BLI (ForteBio): biotin-CD25 on an SA sensor, CD122 step, then sample together with CD132
T5 construct: assembled in the BLI assay from bought subunits; also called hIL2Rα/o/γ complex
T5 sequence (looked up) 1: T3 sequence (looked up)
T5 sequence (looked up) 2: T4 sequence (looked up) 2
T5 sequence (looked up) 3: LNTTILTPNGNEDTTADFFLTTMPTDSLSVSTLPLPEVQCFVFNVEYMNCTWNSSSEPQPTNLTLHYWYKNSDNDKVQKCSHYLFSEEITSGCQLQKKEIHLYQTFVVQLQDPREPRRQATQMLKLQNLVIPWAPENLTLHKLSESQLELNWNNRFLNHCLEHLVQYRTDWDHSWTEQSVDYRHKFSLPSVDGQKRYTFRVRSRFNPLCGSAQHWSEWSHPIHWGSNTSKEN

B1: K2G11-Cy05 (other)
chain: SSSTKKTQLQLEHLLLDLQMILNGINNYKNPKLTRMLTFKFYMPKKATELKHLQCLEEELGPLEEVLNLAQSKNFHLRPRDLISNIRVIVLELKGSETCFMCEYADETATIVEFLNRWITFLQSIISTLTGGGGSGGGGSGGGGSGGGGSQVQLVQSGAEVKKPGATVKISCKVSGDTITAYYMHWVRQAPGQGLEWIGRIDPDDDSTKYAENFKGRVTITADTSTDTAYMELSSLRSEDTAVYYCTTITFLYSRELRWFAYWGQGTLVTVSSASTKGPSVFPLAPSSKSTSGGTAALGCLVKDYFPEPVTVSWNSGALTSGVHTFPAVLQSSGLYSLSSVVTVPSSSLGTQTYICNVDHKPSNTKVDKRVEPKSCDKTHTCPPCPAPEFEGGPSVFLFPPKPKDTLMISRTPEVTCVVVDVSHEDPEVQFNWYVDGVEVHNAKTKPREEQYNSTYRVVSVLTVLHQDWLNGKEYKCKVSNKALPASIEKTISKAKGQPREPQVYTLPPSRDELTKNQVSLTCLVKGFYPSDIAVEWESNGQPENNYKTTPPVLDSDGSFFLYSKLTVDKSRWQEGNVFSCSVMHEALHNHYTQKSLSLSPGK
VL: DIVLTQSPATLSLSPGERATLSCQASQYISNYLSWYQQKPGQAPRLLIYSATSLASGIPARFSGSRCGTDFTLTISSLEPEDFAVYYCLQHYSTPYTFGQGTKLEIK
modifications: Engineered disulfide between chain 1 Cys99 (IL-2 T102C) and chain 2 Cys67 (S67C), as in Table 32 (LC: C67-HC: C99).
notes: hIL2-DM (Δ3, C125L) fused to the heavy chain of K2G11, disulfide IL:102-L:67
In the case of B1, the “Activity in Promoting CTLL-2 Cell Proliferation (EC50, nM)” value [1] is reported as 11.2 nM, the “Activity in Promoting CTLL-2 Cell Proliferation (EC50, nM)” value [2] is reported as 9.17 nM and the “Activity in Promoting NK-92 (CD25-KO) Cell Proliferation (EC50, nM)” value [3] is reported as 0.065 nM. B1: no binding (hIL2Rα (hCD25)); no binding (hIL2Rα/β complex); no binding (hIL2Rα/β/γ complex).
